Source: US20260275311, “CRISPR NUCLEASE POLYPEPTIDES AND GENE EDITING SYSTEMS COMPRISING SUCH” (ARBOR BIOTECHNOLOGIES, INC., published 2026)
Residue numbers refer to the chain shown, from its start.

T1: Nuclease K D582R/G42R (D582R,G42R)
T1 chain: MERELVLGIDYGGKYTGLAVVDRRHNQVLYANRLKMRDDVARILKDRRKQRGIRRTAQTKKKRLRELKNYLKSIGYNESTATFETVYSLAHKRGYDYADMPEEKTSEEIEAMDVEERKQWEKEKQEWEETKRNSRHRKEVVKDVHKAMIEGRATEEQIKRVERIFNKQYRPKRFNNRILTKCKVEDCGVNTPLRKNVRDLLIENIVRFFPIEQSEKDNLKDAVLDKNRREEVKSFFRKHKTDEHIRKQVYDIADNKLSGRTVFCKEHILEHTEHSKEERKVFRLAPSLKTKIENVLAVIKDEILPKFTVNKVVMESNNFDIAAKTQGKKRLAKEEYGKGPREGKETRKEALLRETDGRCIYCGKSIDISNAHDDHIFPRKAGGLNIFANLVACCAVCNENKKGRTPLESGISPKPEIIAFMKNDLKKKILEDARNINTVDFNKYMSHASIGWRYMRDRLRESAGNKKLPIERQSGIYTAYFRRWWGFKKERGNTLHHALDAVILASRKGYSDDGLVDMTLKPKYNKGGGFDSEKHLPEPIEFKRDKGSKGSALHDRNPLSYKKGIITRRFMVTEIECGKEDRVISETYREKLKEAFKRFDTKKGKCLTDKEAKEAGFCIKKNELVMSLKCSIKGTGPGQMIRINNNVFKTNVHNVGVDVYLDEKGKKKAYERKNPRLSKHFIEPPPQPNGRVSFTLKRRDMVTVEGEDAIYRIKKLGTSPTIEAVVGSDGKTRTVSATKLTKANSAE

T2: Nuclease K D582R/I53R/T734R (D582R,I53R,T734R)
T2 chain: T1 chain with R42G, I53R, T734R

T3: Nuclease K
T3 chain: T1 chain with R42G, R582D

T4: Nuclease A I67R/D568R/E706R
T4 chain: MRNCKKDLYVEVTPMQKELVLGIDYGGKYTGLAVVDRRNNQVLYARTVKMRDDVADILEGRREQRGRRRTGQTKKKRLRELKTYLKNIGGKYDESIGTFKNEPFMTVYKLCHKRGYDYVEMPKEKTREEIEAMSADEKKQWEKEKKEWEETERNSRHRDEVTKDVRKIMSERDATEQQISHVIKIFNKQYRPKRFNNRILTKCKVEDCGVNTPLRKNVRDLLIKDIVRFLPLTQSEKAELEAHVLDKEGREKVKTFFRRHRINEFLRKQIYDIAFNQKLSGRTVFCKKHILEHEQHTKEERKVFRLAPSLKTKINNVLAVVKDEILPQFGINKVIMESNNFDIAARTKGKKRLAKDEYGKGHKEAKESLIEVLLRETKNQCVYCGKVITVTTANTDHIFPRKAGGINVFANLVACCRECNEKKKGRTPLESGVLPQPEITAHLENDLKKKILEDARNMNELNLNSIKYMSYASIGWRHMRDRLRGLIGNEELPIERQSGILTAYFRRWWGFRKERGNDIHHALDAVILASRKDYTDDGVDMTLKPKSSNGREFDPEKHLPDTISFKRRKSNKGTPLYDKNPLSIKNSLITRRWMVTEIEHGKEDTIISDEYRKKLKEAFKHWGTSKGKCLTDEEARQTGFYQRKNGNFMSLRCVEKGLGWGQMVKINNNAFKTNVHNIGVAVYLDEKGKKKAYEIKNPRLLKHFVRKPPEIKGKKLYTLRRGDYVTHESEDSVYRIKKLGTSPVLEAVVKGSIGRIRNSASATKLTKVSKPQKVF

T5: Nuclease A
T5 chain: T4 chain with R67I, R568D, R706E

B1: Nuclease K VEGFA-T6 guide ; VEGFA-T6 target (ssRNA ; dsDNA)
RNA: UUUGCCCAUACUGGGGACCAGUUACAGUUAAGGCUCUGAAAAGAGCCUUAAUUGUAAAACGCCUAUACAGUGAAGGGAUAUACGCUUGGGUUUGUCCAGCCUGAGCCUCUAUGCCAGAAAUGGCGCCUUCAUCGUGGGUUAGGACAUUUAAAUUUAAAAACUAUUCAGCACUGUUUGCUCUUGUCAGCUUGGUGGCAGA
DNA 1: TTTGCCCATACTGGGGACCA
DNA 2: TGGTCCCCAGTATGGGCAAA
B2: Nuclease A EMX1-T7 guide ; EMX1-T7 target (ssRNA ; dsDNA)
RNA: CUUUAGCAAGGGACUAUUCAGUUACAGUUAAGGCUCUUUGGAAACAAAGAAGCCUUAAUUGUAAAACGCCUAUAUGGUAAAGUGAUGUACGUUUGGGUAUAUAUCGCCAGCCUGAACCUCUACGCCAGAAAUGGCAGCUUUAUCAUGGGUUAGGACGAUAUUUAAAAAACUUUCUGCGGCUUGCUUACUUUAGUAAGCUUUGUGGCUGAGGCAGAAUUCCUU
DNA 1: CTTTAGCAAGGGACTATTCA
DNA 2: TGAATAGTCCCTTGCTAAAG

Experiments:
[1] = biological target: T1, Nuclease K D582R/G42R; test: cell_activity; PAM NGG; HEK293T; conditions: tags: N- and C-terminal NLS
Description: (§1) This Example describes indel assessment on mammalian targets using nuclease variants of Nuclease K comprising two or more substitutions identified as increasing indel activity in Example 8. 71 combination Nuclease K variants were tested.
(§2) Each Nuclease K variant and RNA guide (see Table 19) was cloned as described in Example 8. HEK293T cells were further transfected, followed by NGS analysis, as described in Example 8. For each target, indel ratios, referring to the percentage of NGS reads comprising indels, were calculated for the reference Nuclease K (SEQ ID NO: 65) and for each Nuclease K variant. The indel ratios shown in Table 20 were calculated as the average of two bioreplicates, each of which contained two technical replicates.

[2] = biological target: T2, Nuclease K D582R/I53R/T734R; test: cell_activity; PAM NGG; HEK293T; conditions: tags: N- and C-terminal NLS
Description: as §1, §2

[3] = biological target: T3, Nuclease K; test: cell_activity; PAM NGG (AGG); HEK293T; conditions: tags: N-terminal SV40 NLS, C-terminal nucleoplasmin NLS
[4] = biological target: T4, Nuclease A I67R/D568R/E706R; test: cell_activity; PAM NGG (GGG); HEK293T; conditions: tags: N-terminal SV40 NLS, C-terminal XTEN linker + nucleoplasmin NLS
Description: (§3) Approximately 16 hours prior to transfection, 25,000 HEK293T cells in DMEM/10% FBS+Pen/Strep (D10 media) were plated into each well of a 96-well plate. On the day of transfection, the cells were 50-90% confluent. For each well to be transfected, a mixture of Lipofectamine 2000™ (ThermoFisher Scientific) and Opti-MEM™ (ThermoFisher Scientific) was prepared and incubated at room temperature for 5 minutes (Solution 1). After incubation, the Lipofectamine 2000™: Opti-MEM™ mixture was added to a separate mixture containing the CRISPR nuclease plasmid (NLS-tagged), RNA guide plasmid, and Opti-MEM™ (Solution 2). In the case of negative controls, the CRISPR nuclease plasmid was excluded. Solutions 1 and 2 were mixed by pipetting up and down, then incubated at room temperature for 25 minutes. Following incubation, the Solution 1 and 2 mixture was added dropwise to each well of a 96-well plate containing the cells. […]
(§4) Each Nuclease A variant and RNA guide (see Table 5) was cloned as described in Example 2. […] For each target, indel ratios, referring to the percentage of NGS reads comprising indels, were calculated for Nuclease A (SEQ ID NO: 1) and for each variant of Nuclease A. The indel ratios shown in Table 6 were calculated as the average of two bioreplicates, each of which contained two technical replicates.

[5] = biological target: T5, Nuclease A; test: cell_activity; PAM NGG (GGG); HEK293T; conditions: tags: N-terminal SV40 NLS, C-terminal XTEN linker + nucleoplasmin NLS
Description: as §3, §4

Row | Binder | activity [1] [indel ratio] | activity [2] [indel ratio] | activity [3] [indel ratio] | activity [4] [indel ratio] | activity [5] [indel ratio]
1 | B1 | 0.153 | 0.097 | 0.009 | – | –
2 | B2 | – | – | – | 0.337 | 0.033
